The results in this text go back to US20250332297A1, “DLL3-SPECIFIC BINDING CONSTRUCTS AND THEIR USE IN RADIOTHERAPY” (MOLECULAR PARTNERS AG, priority 2024, published 2025).

Data set [1] in a line: Dose response finding (tolerability) in WT CD1 mice.
Data set [2] can be described thus: Pharmacokinetic analysis in WT BALBc mice (serum, ELISA). The data set is classed as in vivo, mouse. The conditions noted are these: 1 mg/kg i.v. From the text:
The pharmacokinetic (PK) properties of lead-labelled DARPin (MAM160, MAM279, MAM282, MAM283) conjugates were investigated in mice, including to determine the terminal half-life (or serum half-life) of these conjugates.
In brief, DARPins MAM279, MAM283, MAM160 and MAM282 were conjugated to the chelator DOTAM, via a C-terminal Cysteine containing tag and a connector, as described in Example 3. The conjugates were then labelled with natural lead (Pb). The protein components of the conjugates corresponded to SEQ ID NOs: 15 to 18, respectively. These lead-labelled DARPin conjugates were injected i.v. at 1 mg/kg into WT BALBc mice. Serum was collected 2 min, 10 min, 30 min, 1 h, 4 h, 24 h, 48 h, and 72 h post-injection. DARPins were detected and measured by ELISA. The data were expressed as the DARPin concentration in serum (nmol/L).
In brief, lead-labelled MAM279 conjugate, as described in Example 13, was injected i. at 0.1 mg/kg or at 1 mg/kg into the tail vein of WT BALBc mice. Serum was collected 2 min, 10 min, 30 min, 1 h, 4 h, 24 h, 48 h, and 72 h post-injection for MAM279 conjugate injected at 1 mg/kg, and 2 min, 30 min, 4 h, 24 h, 30 h, 48 h, 72 h, 96 h, and 168 h post-injection for MAM279 conjugate injected at 0.1 mg/kg. DARPins were detected and measured by ELISA. The data were expressed as the DARPin concentration in serum (nmol/L).
In brief, natural lead-labelled MAM279 conjugate, as described in Example 13, was injected i.v. at different doses (0.001 mg/kg, 0.01 mg/kg, 0.1 mg/kg, or 1 mg/kg) into the tail vein of WT BALBc mice. Similarly, unconjugated Rova was injected iv. at 1 mg/kg into the tail vein of WT BALBc mice. Serum was collected 2 min, 10 min, 30 min, 1 h, 4 h, 24 h, 48 h, and 72 h post-injection for MAM279 conjugate injected at 1 mg/kg, and 2 min, 30 min, 4 h, 24 h, 30 h, 48 h, 72 h, 96 h, and 168 h post-injection for MAM279 conjugate injected at 0.1 mg/kg, 0.01 mg/kg and 0.001 mg/kg. Serum was collected 2 min, 30 min, 4 h, 24 h, 30 h, 48 h, 72 h, 96 h, and 168 h post-injection for Rova antibody injected at 1 mg/kg. DARPins and Rova were detected and measured by ELISA. Rova PK characteristics were calculated with time points between 4 h and 168 h and MAM279 conjugate PK characteristics were calculated with time points between 4 h and 72 h. The data were expressed as the DARPin or Rova concentration in serum (nmol/L). Results are shown in FIGS. 19A and 19B and Table 22.
A general note: ELISA stands for enzyme-linked immunosorbent assay.

In a further data set the target is T1, mouse serum albumin (mouse, UniProt P07724 25-608).
T1 construct: also called MSA
Briefly: SPR (Bruker Sierra SPR-32), MSA on chip, DARPin as analyte, 1:1 Langmuir fit. The procedure:
(§1) Similarly, a SPR assay was used to determine the binding kinetics to human or mouse serum albumin. […] All analytes (3-fold dilution ranging from 1000-12.35 nM) were injected in succession for 240 s (25 μl/min) and dissociation was recorded for 600 s (25 μl/min).

Another data set has as its target T2, human serum albumin (human, UniProt P02768 25-609).
T2 construct: also called HSA
Briefly: SPR (Bruker Sierra SPR-32), HSA on chip, DARPin as analyte, 1:1 Langmuir fit. The procedure:
as §1

For data set [3], the target named is T3, hDLL3 ECD-Avi-Fckih (biotinylated extracellular domain of human DLL3, residues 27 to 466, Avi-tag, 3C site, … (human, UniProt Q9NYJ7 27-466, biotinylated at the Avi-tag)).
T3 construct: The make-up of the second Fc chain of the knob-into-hole pair is not described; also called bio-DLL3; recombinant human DLL3; not shown: Avi-tag, 3C protease recognition site and Fc knob into hole
T3 sequence: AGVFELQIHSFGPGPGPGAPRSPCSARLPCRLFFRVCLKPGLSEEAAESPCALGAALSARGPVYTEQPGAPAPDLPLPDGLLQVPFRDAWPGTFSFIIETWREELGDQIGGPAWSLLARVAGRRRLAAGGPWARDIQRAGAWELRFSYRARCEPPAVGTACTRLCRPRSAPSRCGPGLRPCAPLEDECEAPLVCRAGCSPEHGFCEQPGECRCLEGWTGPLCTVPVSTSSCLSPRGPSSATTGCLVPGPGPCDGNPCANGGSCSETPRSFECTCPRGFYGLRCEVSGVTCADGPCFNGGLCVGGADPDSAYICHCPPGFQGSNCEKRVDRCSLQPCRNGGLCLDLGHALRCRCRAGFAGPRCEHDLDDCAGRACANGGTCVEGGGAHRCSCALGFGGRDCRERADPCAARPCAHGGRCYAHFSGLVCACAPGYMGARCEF
The experiment in a line: SPR (ProteOn), biotinylated hDLL3 ECD-Avi-Fckih on chip, DARPin as analyte, 1:1 Langmuir fit. The procedure: Kinetic binding parameters and binding affinities of two domain (2D) ankyrin repeat proteins comprising an ankyrin repeat domain with binding specificity for DLL3 and an ankyrin repeat domain with binding specificity for serum albumin were determined by surface plasmon resonance (SPR) multi-trace analysis.
In brief, a SPR assay was used to determine the binding kinetics to the target human DLL3. The data were generated using BioRad ProteOn instrument in SPR running buffer (PBS, pH 7.4 containing 0.005% Tween 20®). […] The chip was coated with biotinylated target (bio-DLL3) to reach a signal intensity of 1780 RU. […] Each injection was followed by a regeneration step with 16 mM H₃PO₄ for 18 s. […] The bio-DLL3 target used was as described in U.S. 63/550,951, i.e. the extracellular domain (ECD) of human DLL3 protein (Q9NYJ7, Gene ID: 10683, residues 27 to 466; purchased from Evitria) linked via an Avi-tag (for site-directed biotinylation), followed by a 3C protease recognition site, to a Fc knob into hole (hDLL3 ECD-Avi-Fcₖᵢₕ).

In data set [4] the target is T4, Human DLL3 expressed on cells (HEK293T-hDLL3, NCI-H82, SHP-77, MC38-hDLL3) (human, UniProt Q9NYJ7 27-618).
T4 construct: also called DLL3 endogenously expressed on human cells
T4 sequence: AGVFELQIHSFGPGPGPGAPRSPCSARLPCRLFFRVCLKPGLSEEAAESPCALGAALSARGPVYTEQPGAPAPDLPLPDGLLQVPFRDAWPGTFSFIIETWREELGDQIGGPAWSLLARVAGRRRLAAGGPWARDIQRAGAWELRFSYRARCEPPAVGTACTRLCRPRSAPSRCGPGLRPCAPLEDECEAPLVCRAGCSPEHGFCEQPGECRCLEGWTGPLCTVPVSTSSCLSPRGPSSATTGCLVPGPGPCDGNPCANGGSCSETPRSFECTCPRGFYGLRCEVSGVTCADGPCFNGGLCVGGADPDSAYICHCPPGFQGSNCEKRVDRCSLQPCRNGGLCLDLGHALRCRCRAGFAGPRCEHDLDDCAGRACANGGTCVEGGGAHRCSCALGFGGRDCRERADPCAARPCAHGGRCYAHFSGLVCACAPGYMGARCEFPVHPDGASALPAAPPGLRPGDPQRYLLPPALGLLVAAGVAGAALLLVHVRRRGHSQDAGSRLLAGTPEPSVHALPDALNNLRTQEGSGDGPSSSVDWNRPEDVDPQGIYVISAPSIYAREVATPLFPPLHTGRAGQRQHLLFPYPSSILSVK
The experiment in a line: flow cytometry titration on HEK293T-hDLL3 cells, without HSA. The procedure:
(§2) Cell binding titration assays were performed for selected His-tagged single domain (1 D) and two domain (2D) designed ankyrin repeat proteins to determine binding to human DLL3 expressed on HEK293T-huDLL3 cells in absence and presence of human serum albumin. […] HEK293T-hDLL3 cells are HEK293T cells that were stably transfected to express human DLL3 on their surface.
(§3) In brief, 1×10⁵ cells/well were resuspended in 100 μl DARPin dilution (500 nM, 1:5 serial diluted) and incubated for 1 h at 4° C. Cells were washed twice with PBS and resuspended in 100 μl anti-DARPin antibody (rabbit anti-DARPin 1.4.8) and LIVE/DEAD fixable cell stain (1:1000, Thermo Fisher #L34957). This step was performed in absence and presence of […] Human Serum Albumin (CSL Behring #150570). After incubation and washing, cells were incubated with detection antibody for 30 minutes (Goat […] IgG (H+L), AF647, Thermo Fisher #21445). Cells were fixed (Paraformaldehyde Solution, LucernaChem) and acquired at Attune N×T (Thermo Life Technologies). Raw fcs files were exported and analyzed using FlowJo software. MFI values of live AF647-positive cells were exported from FlowJo and plotted using GraphPad Prism software.
Background: Flow cytometry measures light scatter and fluorescence of single cells or particles in a stream.

In data set [5] the target is T4, Human DLL3 expressed on cells …. Briefly: flow cytometry titration on HEK293T-hDLL3 cells, with HSA. As for the experimental part: as §2, §3

T1 sequence (P07724 25-608 limits assumed): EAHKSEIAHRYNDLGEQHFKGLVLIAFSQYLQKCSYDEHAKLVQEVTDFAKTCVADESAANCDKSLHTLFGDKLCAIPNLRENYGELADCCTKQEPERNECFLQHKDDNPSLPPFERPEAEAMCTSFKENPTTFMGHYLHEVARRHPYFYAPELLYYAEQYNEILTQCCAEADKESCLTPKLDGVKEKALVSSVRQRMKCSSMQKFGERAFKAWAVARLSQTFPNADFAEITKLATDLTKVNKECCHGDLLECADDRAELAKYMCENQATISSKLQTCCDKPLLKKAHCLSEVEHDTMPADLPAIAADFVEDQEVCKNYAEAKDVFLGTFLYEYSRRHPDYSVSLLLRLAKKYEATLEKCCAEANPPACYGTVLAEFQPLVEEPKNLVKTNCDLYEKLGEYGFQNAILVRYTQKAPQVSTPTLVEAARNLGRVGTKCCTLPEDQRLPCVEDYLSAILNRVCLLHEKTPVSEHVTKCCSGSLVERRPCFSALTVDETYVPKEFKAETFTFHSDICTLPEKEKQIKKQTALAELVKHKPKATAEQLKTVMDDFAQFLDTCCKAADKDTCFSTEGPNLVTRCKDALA

B1: MAM283 conjugate: SEQ ID NO: 16 conjugated to DOTAM-maleimide, labelled with Pb-212 (natural lead in PK studies) (conjugate)
chain: GSDLGKKLLEAARAGQDDEVRELLKAGADVNAKDYFSHTPLHLAARNGHLKIVEVLLKAGADVNAKDFAGKTPLHLAADAGHLEIVEVLLKAGADVNAQDIFGKTPADIAADAGHEDIAEVLQKAAGSPTPTPTTPTPTPTTPTPTPTGSDLGKKLLAAAADGQDDEVRELLQAGADVNAKDLFGYTPLHLAAWRGHLEIVEVLLEAGADVNAKDAAGETPLHLAAWFGHLEIVEVLLEAGADVNAQDVQGKTPADLAAKEGHEDIAEVLQQAAGSGSC
modifications: DOTAM-maleimide, Pb-212 label; Ankyrin repeat protein with tag (GS-MAM283-tag)
B1: the appearance of animals result in data set [1] (Pb-212 labelled conjugate injected once at 10 μCi, 20 μCi and 30 μCi i.v., WT CD1 mice) is “animals appeared healthy and active”. In addition, the “body weight (BW) change” value in data set [1] (Pb-212 labelled conjugate injected once at 10 μCi, 20 μCi and 30 μCi, WT CD1 mice, recovered within up to about 10 days) was “Minimal weight loss”. In addition, the toxicity result in data set [1] (Pb-212 labelled conjugate, injected dose of 60 μCi, WT CD1 mice) is reported as “Toxicity was observed”. The “hematology profile (white blood cells, lymphocytes, monocytes, neutrophils)” value in data set [1] (within up to 28 days after injection of 10 μCi, 20 μCi and 30 μCi doses (data not shown)) is on record as “complete recovery”. The same molecule displayed a serum half-life in data set [2] of 12.7 h.

B2: MAM160 (two domain ankyrin repeat protein, N-terminal His6-TEV tag) (designed binder)
chain: MRGSHHHHHHENLYFQDLGKKLLEAARAGQDDEVRELLKAGADVNAKDYFSHTPLHLAARNGHLKIVEVLLKAGADVNAKDFAGKTPLHLAADAGHLEIVEVLLKAGADVNAQDIFGKTPADIAADAGHEDIAEVLQKAAGSPTPTPTTPTPTPTTPTPTPTGSDLGTKLLSAAADGQDDEVRELLQAGADVNAKDLFGYTPLHLAAWRGHLEIVEVLLEAGADVNAKDAAGLTPLHLAAWFGHLEIVEVLLEAGADVNAQDVQGVTPADLAAKEGHEDIAEVLQQAA
notes: also called 2D DARPin
In the case of B2, the Kd – broadly, the free concentration of one partner at which half of the binding sites on the other are occupied at equilibrium, for simple one-to-one binding – in the data set with mouse serum albumin stood at 336 nM; in the data set with human serum albumin, 95.9 nM; in data set [3], 1.99 nM. Moreover, the koff – broadly, the rate constant with which the complex falls apart – stood at 0.0271 s⁻¹ with mouse serum albumin, 0.0105 s⁻¹ with human serum albumin and 2.01e-05 s⁻¹ in data set [3]. The kon (as a rule, a measure of how fast the partners come together) with mouse serum albumin was 80400 M⁻¹ s⁻¹; with human serum albumin, 110000 M⁻¹ s⁻¹; in data set [3], 10100 M⁻¹ s⁻¹. Moreover, the EC50 (in general, the midpoint of the concentration-response curve) is 18.9 nM in data set [4] and 36.6 nM in data set [5].
